This assay deals with Recombinant human Tau-40 protein (human) (UniProt P10636). Kind of assay: solution binding assay, then SDS-PAGE and western blotting; 1 µg tau and 1 µg recombinant apoE incubated 1 h at 37 °C in 20 µl PBS (pH 7.4); ended with sample buffer without 2-mercaptoethanol, boiled 5 min; immunoblot for tau (HT7) and apoE. A general note: In western blotting, separated proteins are transferred to a membrane and probed.
Chain of Recombinant human Tau-40 protein (human) (P10636 other isoform, or with tags, fused parts or gaps): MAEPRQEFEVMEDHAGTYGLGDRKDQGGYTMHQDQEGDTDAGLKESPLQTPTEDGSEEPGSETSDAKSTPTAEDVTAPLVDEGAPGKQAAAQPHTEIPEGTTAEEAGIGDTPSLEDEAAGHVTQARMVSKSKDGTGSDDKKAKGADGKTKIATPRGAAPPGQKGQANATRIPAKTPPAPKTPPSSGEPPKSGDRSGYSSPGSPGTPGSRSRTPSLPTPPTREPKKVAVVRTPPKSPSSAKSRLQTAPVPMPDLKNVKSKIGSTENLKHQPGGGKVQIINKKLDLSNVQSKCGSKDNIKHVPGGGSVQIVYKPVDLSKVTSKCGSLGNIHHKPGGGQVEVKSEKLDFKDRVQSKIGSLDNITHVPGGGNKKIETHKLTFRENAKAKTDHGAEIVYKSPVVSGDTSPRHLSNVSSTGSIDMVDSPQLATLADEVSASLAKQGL

In the case of “Recombinant human apoE2 protein (from UniProt P02649 19-317) (natural protein)”, the N of band A stood at 2 tau per apoE and the N of band B was 2 apoE per tau.

For the origin of these results see article PMC6197187.
